Test results reported in patent US20090068110A1, “ANTIBODIES TO INSULIN-LIKE GROWTH FACTOR RECEPTOR” (Genentech, Inc., priority 2006, published 2009).

B1: 9F2: mouse monoclonal anti-IGF-1R antibody from hybridoma 9F2.6.2, ATCC PTA-7018 (antibody, V domains shown)
VH: QIQLVQSGPELKKPGETVKISCKASGYTLANYGMNWVKQAPGKGFKWMGWINTNTGKPTYSDEFKGRFVFSLETSASTAYLLINNLSNEDTATYFCARSIYYYGSRYFNVWGAGTT
VL: DIQMTQSTSSLSASLGDRVTISCRASQDINNYLTWYQQKPDGTVKLLIYYTSRLHSGVPSRFSGSGSGTDYSLTITNLEQEDFATYFCQQGNTLPWTFGEGTKVEIKR
B2: 10H5: mouse monoclonal anti-IGF-1R antibody from hybridoma 10H5.3.4, ATCC PTA-7007 (antibody, V domains shown)
VH: QVQLQQPGAELVKPGASVTLSCKASGYTFTRFWIHWVKQRPGQGLEWIGEINPSNGRTNYNENFKNKATLTVDTSSSTAYMQLSSLTSEVSVVYYCARGGRLDQWGQGTT
VL: DIVMTQSQKFMSTSLGDRVSVTCKASQNVGSNVAWYQQKPGQSPEALIYSASYRYSGVPDRFTGSGSGTDFTLTISNVQSEDLAEYFCHQYNNYPYTFGGGTKVEIKR

How the values were obtained:
[1] = test system: HT29; assay: cell viability assay, HT29; format: cell-based, human; parameters: key: +: growth inhibition; −: no or weak effect; details: HT29, Colorectal Adenocarcinoma
Experimental: (§1) The different cell lines were cultured in their respective culture media at 37° C. in a humidified atmosphere of 5% CO2. Subsequently, cells were detached from tissue-culture flasks using the cell-dissociation solution, TRIPLE SELECT™ solution (InVitrogen, Carlsbad, Calif., USA), and centrifuged at 1000 rpm for five minutes. Detached cells were washed once with PBS, counted, and seeded in 96-well plates (Corning, N.Y., USA) at 2000 cells per well in 100 μL of culture media. After an overnight incubation at 37° C. in a humidified atmosphere of 5% CO2, the cell-culture medium was replaced with 50 μL of starvation medium consisting of serum-free RPMI 1640™ medium without phenol red. The cells were then starved for five hours in the incubator before addition of 25 μL of each anti-IGF-1R monoclonal antibody at various dilutions in serum-free RPMI 1640™ phenol red-free media. Later, 25 μL of phenol red-free RPMI 1640™ media supplemented with 4% of fetal bovine serum (FBS) (Sigma) with or without 4 ng/ml of human recombinant IGF-I were added on top of the 50 μL of antibody. The cells were then placed at 37° C. with 5% CO2 for 5 to 6 days. At the end of the assay, cell viability was measured using the […]-GLO® kit according to the manufacturer's instructions (Promega, Madison, Wis., USA).

[2] = target: T1, human IGF-1R-ECD (Homo sapiens, UniProt P08069); assay: competitive ELISA, blocking of IGF-I/II and IGF-1R interaction; format: binding; details: antibody 100 nM to 0.0976 nM, biotinyl-IGF-I or IGF-II 60 ng/ml
T1 construct: containing the extracellular domain (ECD, amino acids 1-902) tagged with 10 or 12 histidine residues at the carboxyl terminus; His10 or His12 (C); made in house; host or cells: CHO cells
Experimental: To determine whether the anti-IGF-1R antibodies could block ligand/receptor interaction, competitive ELISA was utilized. Human IGF-1R-ECD was coated overnight at 4° C. at 1 μg/ml in a 96-well immunoplate (Nalge Nunc International, Rochester, N.Y., USA). The ELISA plate was washed with wash buffer (PBS, 0.05% TWEEN™ 20 surfactant, pH 7.4), and 150 μl/well of blocking buffer (PBS with 0.5% BSA) was added for one hour at room temperature with gentle agitation. Purified anti-IGF-1R antibodies were first subjected to a two-fold dilution from 100 nM to 0.0976 nM in assay buffer (PBS, 0.5% BSA and 0.05% TWEEN™ 20 surfactant, pH 7.4) and added to the immunoplate to incubate at room temperature for one hour. Biothinyl-IGF-I or IGF-II at 60 ng/ml concentrations (Cell Science, Canton, Mass., USA) was then added and incubated for another 30 minutes. The ELISA plate was washed three times, and 100 μl/well of streptavidin-HRP (GE Healthcare, Piscataway, N.J., USA) at a dilution of 1:6,000 was added for 20 minutes. Color development was conducted as described in conjunction with the direct ELISA. The selected anti-IGF-1R antibodies inhibited IGF-I or IGF-II binding to IGF-1R to various degrees (FIGS. 19A and 19B for IGF-I and IGF-II, respectively).

[3] = test system: HMEC; assay: cell viability assay, HMEC; format: cell-based; parameters: key: +: growth inhibition; −: no or weak effect; details: Human Mammary Epithelial Cell
Experimental: as §1

[4] = test system: DU145; assay: cell viability assay, DU145; format: cell-based, human; parameters: key: +: growth inhibition; −: no or weak effect; details: DU145, Prostate Adenocarcinoma
Experimental: as §1

[5] = target: T2, murine IGF-1R (Mus musculus, UniProt Q60751); assay: BIACORE surface-plasmon resonance, murine IGF-1R; format: binding
T2 construct: evaluated against human and murine IGF-1R-ECD
T2 sequence (Q60751 31-737 limits assumed): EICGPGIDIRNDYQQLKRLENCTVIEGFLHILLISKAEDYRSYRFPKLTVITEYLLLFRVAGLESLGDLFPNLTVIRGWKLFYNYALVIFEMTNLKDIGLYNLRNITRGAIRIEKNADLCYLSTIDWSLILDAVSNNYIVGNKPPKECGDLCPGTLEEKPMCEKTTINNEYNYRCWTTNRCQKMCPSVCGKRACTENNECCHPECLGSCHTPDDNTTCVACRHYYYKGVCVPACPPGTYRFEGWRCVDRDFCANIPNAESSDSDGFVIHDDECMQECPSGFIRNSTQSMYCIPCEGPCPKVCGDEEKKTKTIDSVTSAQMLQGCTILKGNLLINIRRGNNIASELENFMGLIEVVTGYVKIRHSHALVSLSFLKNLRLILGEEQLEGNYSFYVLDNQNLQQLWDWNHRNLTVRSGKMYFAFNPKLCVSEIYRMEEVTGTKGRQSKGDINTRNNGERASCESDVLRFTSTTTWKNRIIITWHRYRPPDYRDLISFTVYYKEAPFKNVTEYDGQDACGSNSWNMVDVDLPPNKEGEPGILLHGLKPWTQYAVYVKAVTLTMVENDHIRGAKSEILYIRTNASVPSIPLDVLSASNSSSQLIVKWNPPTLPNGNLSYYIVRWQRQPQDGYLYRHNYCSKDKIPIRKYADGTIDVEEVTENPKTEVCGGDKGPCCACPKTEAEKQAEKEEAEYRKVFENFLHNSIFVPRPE
T2 sequence (Q60751 742-936 limits assumed): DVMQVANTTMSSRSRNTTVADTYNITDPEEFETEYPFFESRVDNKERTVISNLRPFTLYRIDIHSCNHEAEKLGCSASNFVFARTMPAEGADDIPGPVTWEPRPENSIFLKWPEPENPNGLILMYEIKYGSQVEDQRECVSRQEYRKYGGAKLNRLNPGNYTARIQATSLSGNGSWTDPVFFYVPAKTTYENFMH
Experimental: Before HVR grafting, murine 2B4, 9F2, and 10H5Fab binding affinities were evaluated against human and murine IGF-1R-ECD using BIACORE™ instrument analysis. The procedure used was that for BIACORE™ instrument analyses generally, wherein the analyte was anti-IGF-1R Fab (500 nM-[…]; two-fold serial dilution), the ligand was IGF-1R (about 500 RU)-coated CM5 sensor chip, and the temperature was 25° C.
Binding affinities of selected antibodies to IGF-1R were determined by surface plasmon resonance measurements on a BIACORE™ 3000 instrument (BIAcore, Inc.). Human, murine, or cynomolgus-monkey IGF-1R was immobilized at a density of about 500 RU on the flow cells of a PIONEER™ CM5 sensor chip. Immobilization was achieved by random coupling through amino groups using a protocol provided by the manufacturer. Sensorgrams were recorded for binding of anti-IGF-1R Fab or IgG to these surfaces by injection of a series of solutions ranging from 500 nM to 3.1 nM and 250 nM to 0.78 nM in two-fold increments, respectively. The signal from the reference cell was subtracted from the observed sensorgram. Kinetic constants were calculated by non-linear regression analysis of the data according to a 1:1 Languir binding model using software supplied by the manufacturer.

[6] = test system: HCT15; assay: cell viability assay, HCT15; format: cell-based, human; parameters: key: +: growth inhibition; −: no or weak effect; details: HCT15, Colorectal Adenocarcinoma
Experimental: as §1

[7] = target: IGF-1R (Homo sapiens, UniProt P08069); assay: KIRA assay of IGF-1R phosphorylation in MCF7 cells; format: cell-based; parameters: IGF-1R is normally localized at the plasma membrane of MCF7 cells; endogenous in cells; host or cells: MCF7; details: IGF-I 10 ng/ml or IGF-II 50 ng/ml; ranking upon IGF-II stimulation
Experimental: Also examined was whether the blocking activity of these antibodies was sufficient to interfere with receptor activation, which is measured by IGF-1R phosphorylation. A KIRA assay (kinase receptor activation) was utilized to perform quantitative analysis of IGF-1R phosphorylation in MCF7 cells. Anti-IGF-1R antibodies in serial dilutions (0.19 to 200 nM in medium) were added to MCF7 cells in 96-well plates for one hour. IGF-I (10 ng/ml) or IGF-11 (50 ng/ml) was subsequently added and incubated for ten minutes. The cells were lysed, and the resulting lysates were transferred to an ELISA plate, which was coated with IGF-1R-capturing antibody 3B7 (250 ng/well). After incubation for two hours, the cell lysate was removed, and the plates were washed. Phosphotyrosine-specific antibody 4G10 (Upstate, Charlottesville, Va., USA) was added to detect IGF-1R phosphorylation through TMB peroxidase substrate.

[8] = test system: SW480; assay: cell viability assay, SW480; format: cell-based, human; parameters: key: +: growth inhibition; −: no or weak effect; details: SW480, Colorectal Adenocarcinoma
Experimental: as §1

| Molecule | Effect of IR3, 6D2, 9F2, and 10H5 [1] | inhibition of IGF-I or IGF-II binding to IGF-1R [2] | Effect of IR3, 6D2, 9F2, and 10H5 [3] | Effect of IR3, 6D2, 9F2, and 10H5 [4] | binding to mouse IGF-1R [5] | Effect of IR3, 6D2, 9F2, and 10H5 [6] | inhibition of IGF-I/II-mediated IGF-1R phosphorylation (KIRA) [7] | Effect of IR3, 6D2, 9F2, and 10H5 [8] |
| --- | --- | --- | --- | --- | --- | --- | --- | --- |
| B1 | + | most potent group | − | − | not to mouse IGF-1R or human insulin receptor | − | most effective group | + |
| B2 | + | most potent group | − | − | not to mouse IGF-1R or human insulin receptor | − | most effective group | + |
